{"source": "patent US20180185467A1", "about": "(Harvard, published 2018)", "target": "T1, GST-NS3 of YFV (strain 17D) (Yellow Fever virus, strain 17D, UniProt P03314 1485-2107)", "T1 construct": "domain: NS3; also called YFV NS3; NS3 of Yellow Fever virus", "T1 sequence": "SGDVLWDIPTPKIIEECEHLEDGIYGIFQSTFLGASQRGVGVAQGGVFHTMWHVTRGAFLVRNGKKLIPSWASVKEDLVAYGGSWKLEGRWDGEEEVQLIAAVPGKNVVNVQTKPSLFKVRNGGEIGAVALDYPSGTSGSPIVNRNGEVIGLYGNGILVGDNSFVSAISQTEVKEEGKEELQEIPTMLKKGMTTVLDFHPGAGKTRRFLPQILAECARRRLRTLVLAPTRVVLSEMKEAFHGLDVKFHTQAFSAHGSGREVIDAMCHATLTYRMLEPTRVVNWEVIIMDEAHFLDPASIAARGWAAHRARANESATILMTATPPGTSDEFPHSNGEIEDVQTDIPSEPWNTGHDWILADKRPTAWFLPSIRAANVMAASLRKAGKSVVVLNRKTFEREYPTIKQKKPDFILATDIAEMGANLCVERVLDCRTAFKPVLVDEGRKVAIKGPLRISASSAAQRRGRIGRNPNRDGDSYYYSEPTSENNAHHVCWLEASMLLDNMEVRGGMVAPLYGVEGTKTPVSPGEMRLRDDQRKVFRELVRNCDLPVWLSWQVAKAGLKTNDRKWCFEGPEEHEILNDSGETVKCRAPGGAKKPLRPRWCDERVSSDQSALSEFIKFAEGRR", "experiment": "GST pull-down in 293T cells, immunoblot with anti-14-3-3ε", "data": [{"binder": "endogenous 14-3-3ε (other) MDDREDLVYQAKLAEQAERYDEMVESMKKVAGMDVELTVEERNLLSVAYKNVIGARRASWRIISSIEQKEENKGGEDKLKMIREYRQMVETELKLICCDILDVLDKHLIPAANTGESKVFYYKMKGDYHRYLAEFATGNDRKEAAENSLVAYKAASDIAMTELPPTHPIRLGLALNFSVFYYEILNSPDRACRLAKAAFDDAIAELDTLSEESYKDSTLIMQLLRDNLTLWTSDMQGDGEEQNKEALQDVEDENQ", "values": [{"measurement": "binding result", "result": "no binding"}]}]}
